Experimental data as given in patent US20200299372A1 (ADRENOMED, published 2020).
Like-named read-outs stand apart in the source and are kept apart here. No end group written: not given here.

B1: mature human Adrenomedullin (Human ADM 1-52) (peptide)
peptide: YRQSMNNFQGLRSFGCRFGTCTVQKLAHQIYQFTDKDKDNVAPRSKISPQGY-NH2
modifications: ends and bridges not checked
B2: Murine ADM 1-50 (peptide)
peptide: YRQSMNQGSRSNGCRFGTCTFQKLAHQIYQLTDKDKDGMAPRNKISPQGY-NH2
modifications: ends and bridges not checked

Legend:
[1] = molecular target: T1, human recombinant adrenomedullin receptor (CRLR + RAMP3) (human); assay: cell-based or functional assay
[2] = molecular target: T1, human recombinant adrenomedullin …; assay: cell-based or functional assay; remark: listed apart in the source

T1 sequence (Q16602 whole entry, chain 1 of 2): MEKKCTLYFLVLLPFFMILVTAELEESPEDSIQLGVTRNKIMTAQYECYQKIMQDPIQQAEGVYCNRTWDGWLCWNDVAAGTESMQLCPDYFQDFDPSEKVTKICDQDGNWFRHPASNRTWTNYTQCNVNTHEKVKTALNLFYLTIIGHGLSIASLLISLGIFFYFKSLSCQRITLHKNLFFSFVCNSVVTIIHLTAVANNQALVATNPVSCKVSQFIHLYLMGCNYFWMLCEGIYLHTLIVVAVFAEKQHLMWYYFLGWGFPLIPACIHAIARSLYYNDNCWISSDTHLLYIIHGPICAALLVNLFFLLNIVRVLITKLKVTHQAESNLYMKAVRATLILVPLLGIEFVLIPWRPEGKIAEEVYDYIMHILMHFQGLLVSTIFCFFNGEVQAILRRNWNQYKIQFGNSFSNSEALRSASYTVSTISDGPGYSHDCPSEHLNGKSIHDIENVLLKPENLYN
T1 sequence (O60896 whole entry, chain 2 of 2, further chain): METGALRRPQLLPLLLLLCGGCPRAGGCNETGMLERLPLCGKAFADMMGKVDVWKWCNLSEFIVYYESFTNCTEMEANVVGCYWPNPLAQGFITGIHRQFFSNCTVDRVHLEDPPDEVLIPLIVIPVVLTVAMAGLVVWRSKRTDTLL

Row | Binder | EC50 (read off the curve) [1] | EC50 (read off the curve) [2]
1 | B1 | ~1 nM | –
2 | B2 | – | ~0.09 nM
